Assays:
[1] = biological target: pGBT9-Fas (191-319AA): intracellular domain of Fas/APO-1 fused to the GAL4 DNA-binding domain (human); assay: yeast two-hybrid β-galactosidase filter assay
[2] = biological target: P53 (yeast two-hybrid control); assay: yeast two-hybrid β-galactosidase filter assay (control pair)
Chain of P53 (yeast two-hybrid control) (P02340 72-390): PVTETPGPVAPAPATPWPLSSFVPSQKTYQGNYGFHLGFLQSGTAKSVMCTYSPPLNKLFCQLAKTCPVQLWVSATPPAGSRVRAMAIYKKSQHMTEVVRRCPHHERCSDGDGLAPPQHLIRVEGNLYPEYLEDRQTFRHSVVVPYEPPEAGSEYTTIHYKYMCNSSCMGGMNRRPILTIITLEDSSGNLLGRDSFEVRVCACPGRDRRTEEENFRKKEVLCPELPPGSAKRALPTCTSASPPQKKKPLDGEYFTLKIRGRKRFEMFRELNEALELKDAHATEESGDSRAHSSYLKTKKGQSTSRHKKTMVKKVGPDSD

| Substance | time for the colony to turn blue [1] | time for the colony to turn blue [2] |
| --- | --- | --- |
| Clone 68: in-frame fusion of the Gal4 activation domain to the death domain of FADD/MORT1 (from UniProt Q13158 80-208) | < 3 h | – |
| SV40 T antigen (yeast two-hybrid control) (from UniProt P03070 84-708) | – | < 30 min |
| Sentrin-1 (SEQ ID NO:2) fused to the Gal4 activation-domain (from UniProt A7WLH8 1-101) | < 3 h | – |
